Laboratory results: the FLAb antibody collection

B1: unnamed (protein)
chain 1: QVQLVQSGAEVKKPGASVKVSCKASGYTFTSYDINWVRQATGQGLEWMGWMNPNSGNTGYAQKFQGRVTMTRNTSISTAYMELSSLRSEDTAVYYCARDPYYYYYGMDVWGQGTTVTVSS
chain 2: QSVLTQPPSVSAAPGQKVTISCSGSSSNIENNHVSWYQQLPGTAPKLLIYDNNKRPSGIPDRFSGSKSGTSATLGITGLQTGDEADYYCETWDTSLSAGRVFGGGTKLTVL
B2: unnamed (protein)
chain 1: QVQLVQSGAEVKKPGASVKVSCKASGYIFSNYWIQWVRQAPGQGLEWMGEILPGSGSTEYTENFKDRVTMTRDTSTSTVYMELSSLRSEDTAVYYCARYFFGSSPNWYFDVWGQGTLVTVSS
chain 2: DIQMTQSPSSLSASVGDRVTITCGASENIYGALNWYQQKPGKAPKLLIYGATNLADGVPSRFSGSGSGTDFTLTISSLQPEDFATYYCQNVLNTPLTFGQGTKVEIK
B3: unnamed (protein)
chain 1: QVQLQQSGAELVRPGTSVKVSCKASGYAFTNYLIEWVKQRPGQGLEWIGVINPGSGGTNYNEKFKGKATLTADKSSSTAYMQLSSLTSDDSAVYFCARDGPWFAYWGQGTLVTVSA
chain 2: NIVMTQSPKSMSMSVGERVTLTCKASENVVTYVSWYQQKPEQSPKLLIYGASNRYTGVPDRFTGSGSATDFTLTISSVQAEDLADYHCGQGYSYPYTFGGGTKLEIK
B4: unnamed (protein)
chain 1: EVQLVESGGGLVQPGGSLRLSCAASGYSFTGHWMNWVRQAPGKGLEWVGMIHPSDSETRYNQKFKDRFTISVDKSKNTLYLQMNSLRAEDTAVYYCARGIYFYGTTYFDYWGQGTLVTVSS
chain 2: DIQMTQSPSSLSASVGDRVTITCRASKTISKYLAWYQQKPGKAPKLLIYSGSTLQSGVPSRFSGSGSGTDFTLTISSLQPEDFATYYCQQHNEYPLTFGQGTKVEIK
B5: unnamed (protein)
chain 1: EVQLVESGGGLVQPGGSLRLSCAASGFDFSRYWMSWVRQAPGKGLEWIGEINPDSSTINYAPSLKDKFIISRDNAKNSLYLQMNSLRAEDTAVYYCARPDGNYWYFDVWGQGTLVTVSS
chain 2: DIQMTQSPSSLSASVGDRVTITCKASQDVGIAVAWYQQKPGKVPKLLIYWASTRHTGVPDRFSGSGSGTDFTLTISSLQPEDVATYYCQQYSSYPYTFGQGTKVEIK
B6: unnamed (protein)
chain 1: QVQLVQSGAEVKKPGASVKVSCKASGYTFTDYYMHWVRQAPGQGLEWMGRVNPNRRGTTYNQKFEGRVTMTTDTSTSTAYMELRSLRSDDTAVYYCARANWLDYWGQGTTVTVSS
chain 2: DIQMTQSPSSLSASVGDRVTITCSVSSSVSSIYLHWYQQKPGKAPKLLIYSTSNLASGVPSRFSGSGSGTDFTLTISSLQPEDFATYYCQVYSGYPLTFGGGTKVEIK
B7: unnamed (protein)
chain 1: QVQLVQSGSELKKPGASVKVSCKASGYTFTDNNMDWVRQAPGQGLEWMGDINTRSGGSIYNEEFQDRVIMTVDKSTDTAYMELSSLRSEDTATYHCARRKSYGYYLDEWGEGTLVTVSS
chain 2: DIQMTQSPSSLSASVGDRVTITCKASRNIERQLAWYQQKPGQAPELLIYQASRKESGVPDRFSGSRYGTDFTLTISSLQPEDIATYYCQQYSDPPLTFGGGTKVEIK
B8: unnamed (protein)
chain 1: EVQLVESGGGLVQPGGSLRLSCAASGFTFSSYNMNWVRQAPGKGLEWVSYISSSSSTIYYADSVKGRFTISRDNAKNSLSLQMNSLRDEDTAVYYCARAYYYGMDVWGQGTTVTVSS
chain 2: DIQMTQSPSSVSASVGDRVTITCRASQGISGWLAWYQQKPGKAPKFLIYAASTLQSGVPSRFSGSGSGTDFTLTISSLQPEDFATYYCQQANSFPPTFGGGTKVEIK
B9: unnamed (protein)
chain 1: QVQLVQSGAEVKKPGSSVKVSCKASGGTFSYYWIEWVRQAPGQGLEWMGEILPGSGTTNPNEKFKGRVTITADESTSTAYMELSSLRSEDTAVYYCARADYYGSDYVKFDYWGQGTLVTVSS
chain 2: DIQMTQSPSSLSASVGDRVTITCKASQHVITHVTWYQQKPGKAPKLLIYGTSYSYSGVPSRFSGSGSGTDFTLTISSLQPEDFATYYCQQFYEYPLTFGGGTKVEIK
B10: unnamed (protein)
chain 1: QVQLVESGGGVVQPGRSLRLSCAASGFTFSSFGMHWVRQAPGKGLEWVAVISFDGSIKYSVDSVKGRFTISRDNSKNTLFLQMNSLRAEDTAVYYCARDRLNYYDSSGYYHYKYYGMAVWGQGTTVTVSS
chain 2: QSVLTQPPSVSAAPGQKVTISCSGSSSNIGNNYVSWYQQLPGTAPKLLIYDNNKRPSGIPDRFSGSKSGTSTTLGITGLQTGDEADYYCGTWDSRLSAVVFGGGTKLTVL
B11: unnamed (protein)
chain 1: QVQLVESGGGVVQPGRSLRLSCAASGFTFSSYDMSWVRQAPGKGLEWVAKVSSGGGSTYYLDTVQGRFTISRDNSKNTLYLQMNSLRAEDTAVYYCARHLHGSFASWGQGTTVTVSS
chain 2: EIVLTQSPATLSLSPGERATLSCQASQSISNFLHWYQQRPGQAPRLLIRYRSQSISGIPARFSGSGSGTDFTLTISSLEPEDFAVYYCQQSGSWPLTFGGGTKVEIK
B12: unnamed (protein)
chain 1: EVQLVESGGGLVQPGGSLRLSCAASGFFITNNYWGWVRQAPGKGLEWVGYISYSGSTSYNPSLKSRFTISRDTSKNTFYLQMNSLRAEDTAVYYCARTGSSGYFDFWGQGTLVTVSS
chain 2: DIQMTQSPSSLSASVGDRVTITCRASESVDDLLHWYQQKPGKAPKLLIKYASQSISGVPSRFSGSGSGTDFTLTISSLQPEDFATYYCQQGNSLPNTFGQGTKVEIK
B13: unnamed (protein)
chain 1: EVQLVQSGAEVKKPGASVKVSCKASGYTLTSYGISWVRQAPGQGLEWMGWVSFYNGNTNYAQKLQGRGTMTTDPSTSTAYMELRSLRSDDTAVYYCARGYGMDVWGQGTTVTVSS
chain 2: ESALTQPASVSGSPGQSITISCTGTSSDVGGYNSVSWYQQHPGKAPKLMIYEVSNRPSGVSNRFSGSKSGNTASLTISGLQAEDEADYYCNSYTSTSMVFGGGTKLTVL
B14: unnamed (protein)
chain 1: EVQLVESGGGVVQPGRSLRLSCSASGFTFSGYGLSWVRQAPGKGLEWVAMISSGGSYTYYADSVKGRFAISRDNAKNTLFLQMDSLRPEDTGVYFCARHGDDPAWFAYWGQGTPVTVSS
chain 2: DIQLTQSPSSLSASVGDRVTITCSVSSSISSNNLHWYQQKPGKAPKPWIYGTSNLASGVPSRFSGSGSGTDYTFTISSLQPEDIATYYCQQWSSYPYMYTFGQGTKVEIK
B15: unnamed (protein)
chain 1: QVQLVQPGAEVKKPGTSVKLSCKASGYTFTTYWMHWVRQAPGQGLEWIGEINPTNGHTNYNQKFQGRATLTVDKSTSTAYMELSSLRSEDTAVYYCARNYVGSIFDYWGQGTLLTVSS
chain 2: DIVMTQSPDSLAMSLGERVTLNCKASENVVSYVSWYQQKPGQSPKLLIYGASNRESGVPDRFSGSGSATDFTLTISSVQAEDVADYHCGQSYNYPYTFGQGTKLEIK
B16: unnamed (protein)
chain 1: QVQLVQSGAEVKRPGASVKVSCKASGYTFTNDIIHWVRQAPGQRLEWMGWINAGYGNTQYSQNFQDRVSITRDTSASTAYMELISLRSEDTAVYYCAREPLWFGESSPHDYYGMDVWGQGTTVTVSS
chain 2: AIQLTQSPSSLSASVGDRVTITCRASQGISSALAWYQQKPGKAPKLLIYDASSLESGVPSRFSGSGSGTDFTLTISSLQPEDFATYYCQQFNSYPLTFGGGTKVEIK
B17: unnamed (protein)
chain 1: QVQLVQSGAELKKPGSSVKVSCKASGYIFTSSWINWVKQAPGQGLEWIGRIDPSDGEVHYNQDFKDKATLTVDKSTNTAYMELSSLRSEDTAVYYCARGFLPWFADWGQGTLVTVSS
chain 2: DIQMTQSPSTLSASVGDRVTITCKASENVDTYVSWYQQKPGKAPKLLIYGASNRYTGVPSRFSGSGSGTDFTLTISSLQPDDFATYYCGQSYNYPFTFGQGTKVEVK
B18: unnamed (protein)
chain 1: EVQLVESGGGLVQPGGSLRLSCAASGFTFSNYWISWVRQAPGKGLEWVAEIRSESDASATHYAEAVKGRFTISRDNAKNSLYLQMNSLRAEDTAVYYCLAYFDYGLAIQNYWGQGTLVTVSS
chain 2: EIVLTQSPATLSLSPGERATLSCKASKRVTTYVSWYQQKPGQAPRLLIYGASNRYLGIPARFSGSGSGTDFTLTISSLEPEDFAVYYCSQSYNYPYTFGQGTKLEIK
B19: unnamed (protein)
chain 1: EVQLVESGGGLVKPGGSLRLSCAASGFPFSKLGMVWVRQAPGKGLEWVSTISSGGGYTYYPDSVKGRFTISRDNAKNSLYLQMNSLRAEDTAVYYCAREGISFQGGTYTYVMDYWGQGTLVTVSS
chain 2: DIVMTQSPLSLPVTPGEPASISCRSSKSLLHRNGITYSYWYLQKPGQSPQLLIYQLSNLASGVPDRFSGSGSGTDFTLKISRVEAEDVGVYYCYQNLELPLTFGQGTKVEIK

experiment: patients with anti-drug antibodies; higher = more immunogenic

Protein | patients with anti-drug antibodies
B1 | 0%
B2 | 2%
B3 | 80%
B4 | 6.3%
B5 | 18.5%
B6 | 0%
B7 | 3.5%
B8 | 1%
B9 | 9%
B10 | 2.4%
B11 | 0%
B12 | 5%
B13 | 0.3%
B14 | 8.7%
B15 | 0%
B16 | 1.7%
B17 | 7.8%
B18 | 1.6%
B19 | 6.5%
